This is an account of results in patent US20250277054A1 (WUXI BIOLOGICS IRELAND, published 2025).

The target in experiment [1] is T1, human PSMA on human prostate cancer cells (LNCaP, C4-2, 22Rv1) (human, UniProt Q04609 1-750).
T1 construct: whole, on cells; also called human PSMA-expressing LNCaP cells; C4-2 (PSMA High)
Put plainly: flow cytometry on LNCaP cells. The procedure:
After washing the cells twice with 1×PBS/1% BSA, Alexa fluor 647-labeled goat anti-human antibody (1:500 diluted with 1×PBS/1% BSA) was added into the cells and incubated in a refrigerator set to 4° C. for 0.5 hour in the dark. After washing the cells twice with 1×PBS/1% BSA, the mean fluorescence intensity (MFI) of the cells was measured by a flow cytometer and analyzed by FLOWJO. The binding EC50 was calculated by GraphPad Prism through plotting antibody concentration (x-axis) versus MFI (y-axis) and analyzing as: Nonlinear regression (curve fit)-log (agonist) vs. response-Variable slope (four parameters).
In general terms: Flow cytometry measures light scatter and fluorescence of single cells or particles in a stream.

Experiment [2] addresses T2, Mouse PSMA.ECD.His (Acro) (mouse, UniProt O35409 45-752).
T2 construct: extracellular domain; Bought protein with His tag; also called mouse PSMA protein (His tag); Mouse PSMA/FOLH1 protein, His tag
Put plainly: ELISA, coated mouse PSMA protein (His tag). The procedure:
Briefly, 2 μg/mL mouse PSMA protein (His tag) were coated onto well in ELISA plate in coating buffer for 16 hours in a refrigerator set to 4° C. After washing plate once time with 1×PBST, 200 μL/well 2% BSA were added into wells and incubated for one hour at ambient temperature. […] After washing six times with 1×PBST, 100 μL/well of TMB substrate solution were added into wells and incubated for 5 minutes in dark and then 100 μL/well of 2M HCL were added into wells to stop the reaction. The relative light unit (RLU) were measured at OD450 and OD540 by SPECTRAMAX M5E. EC50 was determined as described above.
(In general: In an ELISA, binding on a coated surface is turned into a signal by an enzyme label.)

Experiment [3] deals with T3, Human PSMA.ECD.His (Acro) (human, UniProt Q04609 44-750).
T3 construct: extracellular domain; Bought protein with His tag; also called human PSMA ECD protein; Human PSMA/FOLH1 protein, His tag
T3 sequence (Q04609 44-750): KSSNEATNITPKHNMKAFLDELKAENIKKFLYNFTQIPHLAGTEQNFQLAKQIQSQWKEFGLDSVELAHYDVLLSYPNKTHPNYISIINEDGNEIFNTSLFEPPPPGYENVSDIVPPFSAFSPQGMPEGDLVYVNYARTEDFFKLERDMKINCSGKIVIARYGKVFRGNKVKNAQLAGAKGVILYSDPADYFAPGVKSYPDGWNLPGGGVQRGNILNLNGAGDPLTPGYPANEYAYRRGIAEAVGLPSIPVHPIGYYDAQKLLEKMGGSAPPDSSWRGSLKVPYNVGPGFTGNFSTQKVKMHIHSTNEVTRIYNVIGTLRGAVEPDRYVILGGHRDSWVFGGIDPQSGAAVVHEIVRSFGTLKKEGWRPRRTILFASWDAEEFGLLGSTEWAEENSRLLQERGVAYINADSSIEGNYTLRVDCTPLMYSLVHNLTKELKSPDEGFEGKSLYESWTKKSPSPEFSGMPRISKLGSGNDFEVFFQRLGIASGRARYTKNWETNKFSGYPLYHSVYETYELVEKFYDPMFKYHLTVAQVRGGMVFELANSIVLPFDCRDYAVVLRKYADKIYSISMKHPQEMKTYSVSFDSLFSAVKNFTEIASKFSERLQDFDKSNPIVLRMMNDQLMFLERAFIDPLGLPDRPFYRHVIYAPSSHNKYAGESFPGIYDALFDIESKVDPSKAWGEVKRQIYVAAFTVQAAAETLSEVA
Nature of the experiment: ELISA, human PSMA ECD captured by anti-His antibody.
Method: Plate was pre-coated with 1 μg/mL THE™ His Tag Antibody overnight in a refrigerator set to 4° C. After blocking with 200 μL of 1×PBS/2% BSA for 1 hour, the plates were washed with 1×PBST for three times, then 0.5 g/mL human PSMA ECD protein diluted in 1×PBS/2% BSA was added in a volume of 50 μL/well to the plate and incubated for 1 hour at ambient temperature. […] After washing the plates with 1×PBST for three times, 50 μL/well of HRP-labeled goat anti-human IgG antibody (1:5000 diluted in 1×PBS/2% BSA) were added into the plate and incubated for 1 hour at ambient temperature. After washing the plates with 1×PBST for six times, the color was developed by dispensing 50 μL/well of TMB substrate for 4-8 minutes, and then the reaction was stopped by adding 50 μL/well of 2M HCl. The absorbance was read at 450 nm using a microplate reader. The binding EC50 was calculated by GraphPad Prism through plotting antibody concentration (x-axis) versus OD450 value (y-axis) and analyzing as: Nonlinear regression (curve fit)-log (agonist) vs. response-Variable slope (four parameters).

Experiment [4] concerns the target T4, full-length cynomolgus PSMA on Flp-in CHO cells (WBP3xx042-FlpinCHO.cPro1.B7) (cynomolgus, UniProt A0A2K5VNZ0 1-750).
T4 construct: whole, on cells; also called Cyno PSMA+ CHO cells; FlpInCHO-cyno PSMA
Put plainly: flow cytometry on cynomolgus PSMA-expressing CHO cells. As to the method: After washing the cells twice with 1×PBS/1% BSA, Alexa fluor 647-labeled goat anti-human antibody (1:500 diluted with 1×PBS/1% BSA) was added into the cells and incubated in a refrigerator set to 4° C. for 0.5 hour in the dark. After washing the cells twice with 1×PBS/1% BSA, the mean fluorescence intensity (MFI) of the cells was measured by a flow cytometer and analyzed by FLOWJO.

Experiment [5] deals with T5, Cyno PSMA.ECD.His (Acro) (cynomolgus, UniProt A0A2K5VNZ0 44-750).
T5 construct: extracellular domain; Bought protein with His tag; also called cynomolgus PSMA ECD protein; Cynomolgus PSMA/FOLH1 protein, His tag
Put plainly: ELISA, cynomolgus PSMA ECD captured by anti-His antibody.
Method: Plate was pre-coated with 1 μg/mL THETM His Tag Antibody overnight in a refrigerator set to 4° C. After blocking with 200 μL of 1×PBS/2% BSA for 1 hour, the plates were washed with 1×PBST for three times, then 0.5 μg/mL cynomolgus PSMA ECD protein diluted in 1×PBS/2% BSA was added in a volume of 50 μL/well to the plate and incubated for 1 hour at ambient temperature. […] After washing the plates with 1×PBST for three times, 50 μL/well of HRP-labeled goat anti-human IgG antibody (1:5000 diluted in 1×PBS/2% BSA) were added into the plate and incubated for 1 hour at ambient temperature. After washing the plates with 1×PBST for six times, the color was developed by dispensing 50 μL/well of TMB substrate for 4-8 minutes, and then the reaction was stopped by adding 50 μL/well of 2M HCl. The absorbance was read at 450 nm using a microplate reader. EC50 was determined as described above.

The target in experiment [6] is T5, Cyno PSMA.ECD.His (Acro). Nature of the experiment: SPR (Biacore 8K), antibody captured by anti-human IgG Fc, PSMA injected, 1:1 model. As to the method: (§1) Each antibody was captured on an anti-human IgG Fc antibody immobilized CM5 sensor chip (Cytiva). Human and cynomolgus PSMA at different concentrations were injected over the sensor chip at a flow rate of 30 μL/min for an association phase of 120-180 s, followed by 600-3600 s dissociation. The chip was regenerated by 10 mM glycine (pH 1.5) after each binding cycle.
(§2) The sensorgrams of blank surface and buffer channel were subtracted from the test sensorgrams. The experimental data was fitted by 1:1 binding model. Molecular weight of 81.4 and 82.7 kDa were used to calculate the molar concentration of human and cynomolgus PSMA.
(In general: Surface plasmon resonance follows binding to a sensor surface in real time, without labels.)

Experiment [7] has as its target T3, Human PSMA.ECD.His (Acro). The experiment is described as above. As to the method:
as §1, §2

T2 sequence (O35409 45-752): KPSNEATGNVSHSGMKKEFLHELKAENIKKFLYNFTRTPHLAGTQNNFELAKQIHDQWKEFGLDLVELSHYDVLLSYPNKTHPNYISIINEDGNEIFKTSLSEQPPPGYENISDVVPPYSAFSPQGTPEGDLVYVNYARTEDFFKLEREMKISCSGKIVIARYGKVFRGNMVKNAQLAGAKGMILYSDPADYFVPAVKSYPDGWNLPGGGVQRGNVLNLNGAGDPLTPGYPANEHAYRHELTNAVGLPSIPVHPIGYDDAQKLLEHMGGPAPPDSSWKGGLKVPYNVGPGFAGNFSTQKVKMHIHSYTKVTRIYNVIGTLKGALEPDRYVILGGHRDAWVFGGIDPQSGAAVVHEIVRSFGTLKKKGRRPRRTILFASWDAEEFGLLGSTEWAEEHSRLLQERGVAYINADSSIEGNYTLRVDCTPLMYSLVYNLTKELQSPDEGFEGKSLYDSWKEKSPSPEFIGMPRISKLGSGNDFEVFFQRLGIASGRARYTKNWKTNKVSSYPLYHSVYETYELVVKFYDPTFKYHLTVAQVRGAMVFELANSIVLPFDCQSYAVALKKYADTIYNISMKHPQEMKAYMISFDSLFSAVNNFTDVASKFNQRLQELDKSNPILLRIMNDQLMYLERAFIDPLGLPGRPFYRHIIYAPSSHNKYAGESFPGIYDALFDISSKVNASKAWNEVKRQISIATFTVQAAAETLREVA
T1 sequence (Q04609 whole entry): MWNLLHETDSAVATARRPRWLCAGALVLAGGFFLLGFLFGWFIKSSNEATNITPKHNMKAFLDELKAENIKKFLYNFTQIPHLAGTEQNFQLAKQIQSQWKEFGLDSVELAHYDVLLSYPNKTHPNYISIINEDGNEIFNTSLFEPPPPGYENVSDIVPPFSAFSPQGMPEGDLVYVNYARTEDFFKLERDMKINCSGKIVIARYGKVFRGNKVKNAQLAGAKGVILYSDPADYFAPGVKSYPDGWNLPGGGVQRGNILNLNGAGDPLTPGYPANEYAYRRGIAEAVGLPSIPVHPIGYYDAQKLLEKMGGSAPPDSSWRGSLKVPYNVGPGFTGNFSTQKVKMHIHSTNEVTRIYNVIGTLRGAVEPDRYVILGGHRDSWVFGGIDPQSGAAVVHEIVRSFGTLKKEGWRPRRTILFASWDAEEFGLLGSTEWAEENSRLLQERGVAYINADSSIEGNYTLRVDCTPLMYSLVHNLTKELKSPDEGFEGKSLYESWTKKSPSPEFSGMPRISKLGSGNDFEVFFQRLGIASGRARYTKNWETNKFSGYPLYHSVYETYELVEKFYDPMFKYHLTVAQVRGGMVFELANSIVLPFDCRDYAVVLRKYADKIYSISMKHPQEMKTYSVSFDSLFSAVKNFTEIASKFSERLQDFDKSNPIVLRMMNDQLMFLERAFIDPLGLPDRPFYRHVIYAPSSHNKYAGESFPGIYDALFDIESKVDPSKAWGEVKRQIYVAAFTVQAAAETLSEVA

B1: W305042-1.135.2-uIgG1L (antibody, V domains shown)
VH: EVQLVQSGAEVKKPGESLKISCKASGYSFTTYWIGWVRQMPGKGLELMGIIYPYDSDTRYSPSFQGQVTISADKSINTAYLQWSSLKASDTAMYYCARITGGYLFDYWGQGILVTVSS
VL: QSALTQPPSASGSPGQSVTISCTGTSSDVGGYNYVSWYQQHPGKAPKLMIYEVTKRPSGVPDRFSGSKSGNTASLTVSGLQAEDEADYYCTSYAGSNKYVFGTGTKVTVLG
notes: Fully human anti-PSMA monoclonal antibody, human IgG1 with lambda light chain; also called WBP305042; W305042-1.135.2-uIgGIL
Turning to B1, the EC50 was found to be 0.25 nM in experiment [1]; 0.026 nM in experiment [2]; 0.017 nM in experiment [3]; 2.25 nM in experiment [4]; 0.006 nM with Cyno PSMA.ECD.His (Acro) [5]. The Kd with Cyno PSMA.ECD.His (Acro) [6] was determined as 2.84 nM; in experiment [7], 0.0294 nM. For the same molecule, the dissociation rate constant (koff) with Cyno PSMA.ECD.His (Acro) [6] came out at 0.000584 s⁻¹; in experiment [7], 1.12e-05 s⁻¹. Moreover, the kon with Cyno PSMA.ECD.His (Acro) [6] was 206000 M⁻¹ s⁻¹; in experiment [7], 381000 M⁻¹ s⁻¹.

As a reminder, the EC50 is the midpoint of the concentration-response curve. Usually Kd stands for the equilibrium constant for the complex coming apart. Read a high Kd as a looser complex. As a reminder, the koff is a measure of how fast the partners let go of each other. A low value points to slow dissociation. For orientation: kon means the rate constant with which the complex forms. Low values mean slow association, high ones fast association.
